T1: ADAMTS-5 lacking the C-terminal thrombospondin domain (Homo sapiens, UniProt Q9UNA0)
T1 chain: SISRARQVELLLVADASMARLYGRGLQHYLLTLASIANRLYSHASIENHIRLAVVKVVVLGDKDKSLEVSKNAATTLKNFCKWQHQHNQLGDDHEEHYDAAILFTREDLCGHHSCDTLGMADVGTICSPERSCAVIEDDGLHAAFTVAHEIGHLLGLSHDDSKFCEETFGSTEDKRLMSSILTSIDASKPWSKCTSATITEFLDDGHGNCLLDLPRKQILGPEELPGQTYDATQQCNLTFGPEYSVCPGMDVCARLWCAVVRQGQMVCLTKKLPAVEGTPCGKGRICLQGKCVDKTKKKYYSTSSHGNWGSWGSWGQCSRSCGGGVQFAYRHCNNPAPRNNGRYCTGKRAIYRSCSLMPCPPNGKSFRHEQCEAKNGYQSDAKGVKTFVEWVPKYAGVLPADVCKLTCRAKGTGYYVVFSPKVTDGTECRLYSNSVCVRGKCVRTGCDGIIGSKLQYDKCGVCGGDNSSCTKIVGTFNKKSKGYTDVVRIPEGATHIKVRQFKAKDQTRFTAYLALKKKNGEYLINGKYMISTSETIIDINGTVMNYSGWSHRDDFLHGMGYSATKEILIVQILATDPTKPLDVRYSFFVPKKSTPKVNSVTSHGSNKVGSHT

T2: MMP-1 catalytic domain (Homo sapiens, UniProt P03956)
T2 chain: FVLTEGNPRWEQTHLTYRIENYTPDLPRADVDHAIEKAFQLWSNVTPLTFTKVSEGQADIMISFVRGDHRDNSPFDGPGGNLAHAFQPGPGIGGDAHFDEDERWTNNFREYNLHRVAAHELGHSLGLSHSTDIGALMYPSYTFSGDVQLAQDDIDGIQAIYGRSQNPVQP


Key:
Assay in all cases: inhibition of fluorescent peptide substrate cleavage, tight binding equation
[1] = target: T1, ADAMTS-5 lacking the C-terminal …
MMP-1 catalytic domain = target: T2, MMP-1 catalytic domain
MMP-3 catalytic domain = MMP-3 catalytic domain (Homo sapiens, UniProt P08254)
MMP-3 catalytic domain, sequence (P08254 100-272): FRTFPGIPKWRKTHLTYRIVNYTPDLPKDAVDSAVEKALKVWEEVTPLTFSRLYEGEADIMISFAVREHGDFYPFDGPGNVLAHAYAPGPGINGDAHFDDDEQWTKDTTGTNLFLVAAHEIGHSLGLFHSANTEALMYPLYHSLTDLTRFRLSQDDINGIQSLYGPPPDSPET

Ki [1]	Ki (MMP-1 catalytic domain)	Ki (MMP-3 catalytic domain)	Binder
1.6 nM	0.65 nM	0.76 nM	TIMP-3 (protein, suramin (0.05 µg/ml)) CTCSPSHPQDAFCNSDIVIRAKVVGKKLVKEGPFGTLVYTIKQMKMYRGFTKMPHVQYIHTEASESLCGLKLEVNKYQYLLTGRVYDGKMYTGLCNFVERWDQLTLSQRKGLNYRYHLGCNCKIKSCYYLPCFVTSKNECLWTDMLSNFGYPGYQSKHYACIRQKGGYCSWYRGWAPPDKSIINATDP
2.03 nM	0.66 nM	1.14 nM	TIMP-3 (protein) CTCSPSHPQDAFCNSDIVIRAKVVGKKLVKEGPFGTLVYTIKQMKMYRGFTKMPHVQYIHTEASESLCGLKLEVNKYQYLLTGRVYDGKMYTGLCNFVERWDQLTLSQRKGLNYRYHLGCNCKIKSCYYLPCFVTSKNECLWTDMLSNFGYPGYQSKHYACIRQKGGYCSWYRGWAPPDKSIINATDP
